Laboratory results as given in the DeepSol protein solubility set.

Assay: soluble on expression in E. coli; label from the status in PepcDB or PDB records
With “MFTKSCAKATDQNRQELFMDSLLGDFQKMKEKALNQQQERRSKKRELHCKSSEKTKKPNQYAALTHSQVQEVKAKVRTVNDKFHLNAEEKKLWELILLGNQLAQNISSCDLPTDNEDDASLVKLTQIFADETLERTDLTWLNKILKIALYSRGSGFGNCQEKAFFVFALLLHQAQKPESLIHSLRLATFNNHFILIVNEQFLMDPWLNLAFPLSKGNQQLEIGYVFERFGRLVNYFSINQEGQCFTHTVREGGTIERDPSSEKDMANCIHSLLDHRDYFDLSIVSEREIHTNTKRRKYENQEQEVPQPRQETSNQPTETVYTDSSHNTWDNEGAADDFLEHFEQTHPVYNPGFFSFGQDDVGLKPDLPKNLFKF” the “soluble on expression in E. coli” value was “not soluble”.
With “GMSNQKHIDKIQAVIKDVKFAMISTSNKKGDIHAWPMTTSEVNLDNKEIWFIGDKTSDVVKDIQDDARIGLTYATQDEKNYVSISGDAELPTDKAKLDELWSPVYSAFFANGKEDANIQLIKVVPHGVECWLSG” the “soluble on expression in E. coli” value was “soluble”.
With “MATKLTPKQKAQLDELSMSEKIAILLIQVGEDTTGEILRHLDIDSITEISKQIVQLNGTDKQIGAAVLEEFFAIFQSNQYINTGGLEYARELLTRTLGSEEAKKVMDKLTKSLQTQKNFAYLGKIKPQQLADFIINEHPQTIALILAHMEAPNAAETLSYFPDEMKAEISIRMANLGEISPQVVKRVSTVLENKLESLTSYKIEVGGLRAVAEIFNRLGQKSAKTTLARIESVDNKLAGAIKEMMFTFEDIVKLDNFAIREILKVADKKDLSLALKTSTKDLTDKFLNNMSSRAAEQFVEEMQYLGAVKIKDVDVAQRKIIEIVQSLQEKGVIQTGEEEDVIE” the “soluble on expression in E. coli” value was “not soluble”.
For “MFCTSEAAVDMDSGRGDIRRLKDGEILKYTSGIFSSKWKKMYAVLFSDSRLVWFENRGDRKPKGSVLLKDVIPYICVGLMTDRMPVKRPNVPEGNSVHHLVGIGMNPKADPCHWILFSSDSDIESWFTEITKTLPKPANPPPNAPQQGPGAQPPQQQNNGGYVPPTVYPSAPPPVQPGYNPRPASGQSYPSGPQVPPAYGQYPQPGYPQPAGVPTSSHTTVIVRDGGYGGGGYGGYGGGGGGFGSTGLGFGSGILAGSLLGYGLGSMWGGHHSYGGWGGGYGGGGYGMAGGYYSDNDTTVTNNYYNYGDNDNNGGNNHSSSSNAITDAPGNAGDQSQQQSDNNYGNANQDSYDQGNDYGNDYGNAGYDSGDFGGGDYGGGGYDSGDFGGGDFGGGDFGGGDFGGGDY”, the “soluble on expression in E. coli” value was “not soluble”.
In the case of “MKTPVCSEEQGPARDVIAQLLEDALQVESQEQPEQAFVKPHLVSEFDIYGFRTVPDDDEEEKLVAKVRALDLKTLYLTDNQEVSTGVKWENYFASTMNREMACSPELKNLIRAGIPHEHRSKVWKWCVDRHTRKFKDSMEPDYFQTLLQKALEKQNPASKQIELDLLRTLPNNKHYSSPTSEGIQKLRSVLLAFSWRNPDIGYCQGLNRLVAVALLYLDQEDAFWCLVTIVEVFMPRDYYTKTLLGSQVDQRVFRDLLSEKLPRLHTHFEQYKVDYTLITFNWFLVVFVDSVVSDILFKIWDSFLYEGPKVIFRFALALFKYKEEEILKLQDSMSIFKYLRYFTRTILDARKLISISFGDLNPFPLRQIRNRRAYHLEKVRLELTELEAIREDFLRERDTSPDKGELVSDEEEDT”, the “soluble on expression in E. coli” value is reported as “not soluble”.
With “MGSDKIHHHHHHMSDQANQGDLEIRPSPLLKVINDLHSKYKSLKEGIVANYIPELAKVNPDLFSISIVTVDGQVYQVGDYQQLFTIQSISKVFAYGLALEDHGRDYVLTRVGVEPTGEAFNAIILDEQSKRPYNPMVNAGAIATTSLIKGAGATERLNRVLEMFRRYIGHDVFVDISVFTSERSTGHRNRAMAHLMLNFGMIDRNIEEALDLYFQQCAVMVNCHDLAVMAATLANRGVNPITGEQAVNSRYIKDILSVMYTCGMYNFAGEWAYKVGIPAKSGVCGGIMAVVPNLMGIAVFSPPLDIRGNSVRGVKVCEELSQQLGLHLFECMKVGNGEWGVGNCEC” the “soluble on expression in E. coli” value was “not soluble”.
With “MGHHHHHHSHMEQTEVLKPRTLADLIRILHQLFAGDEVNVEEVQAIMEAYESDPIEWAMYAKFDQYRYTRNLVDQGNGKFNLMILCWGEGHGSSIHDHTNSHCFLKMLQGNLKETLFAWPDKKSNEMVKKSERVLRENQCAYINDSIGLHRVENISHTEPAVSLHLYSPPFDTCHAFDQRTGHKNKVTMTFHSKFGIRTPNATSGSLENN” the “soluble on expression in E. coli” value was “not soluble”.
For “MSVLDELYREILLDHYQSPRNFGVLPQATKQAGGMNPSCGDQVEVMVLLEGDTIADIRFQGQGCAISTASASLMTEAVKGKKVAEALELSRKFQAMVVEGAPPDPTLGDLLALQGVAKLPARVKCATLAWHALEEALR”, the “soluble on expression in E. coli” value was “soluble”.
For “MKHQHQHQHQHQHQMHQTEDYCLASNKVGRCRGSFPRWYYDPTEQICKSFVYGGCLGNKNNYLREEECILACRGV”, the “soluble on expression in E. coli” value was “soluble”.
With “MGSDKIHHHHHHMVQTVYKNSDQTVFEDAKALFQLNKNILLKGPTGSGKTKLAETLSNVMKLPMHQVNCSVDLDTESLLGFKTIHTNEEGHQEIVFIDGPVIKAMKEGHILYIDEINMAKPETLPILNGVLDYRRQLTNPYTGEVIKAAPGFNVIAAINEGYVGTLPMNEALKNRFIVIEVDYIDGDILKTVIKEQSKLQDEQLIQHIVKFNEDLRTMTKQGQISEEAASIRALIDLSDLATVMPIERAVQRTIIDKLEDEREQQAILNAIELNF” the “soluble on expression in E. coli” value was “not soluble”.
With “MAHHHHHHMTAQILLYTDCIPQVFSPLKGEREGLLDSQQFANITTNCNTAFACGDPSLNTRISPYMRLSYFHNVTRIRNRKAHISHDIAGDCYVHYKTTCGGIILRPNVRLRPRGRSHRNRVSPRNVIFAAIFLNHRRNGLNRHIDRLNQILQKIIGNIAQTRYG” the “soluble on expression in E. coli” value was “not soluble”.
With “MMEADKKFLELVKKWGVLSVVSSWQDRLLRDICALIVECVLFDKTCAVAPAYFTLIAMNSSKFSTQQWNIFSNFLATASTQSLRHVRLLNSFFVRSSTDENGDIGDVTSYNPGKLTFRQLIAAVQVLSSQKEKSLGQKEEEDLSSGVALIMLSHGADTHRLEVHSIISSLFTHCLLLQLIASLLLSEDSNPKLKATLIGSTSPIDPKLDDSIYPILYNILNESSETSLDFDSRPAVGSLLSRMLGIKHANLLKALVSSNLTKTMSLLRRFEKTKNTELLPEIAKAVKSRSVDLKSVEFEVSTRRSAFVTREHAITQYHLVPVDNGEENAYKLVSQEFVDGALSEYDKHRDRLKPFIPDRRNPFQHAIDDSDTVSIDSKTEDFDEIRLAAYRDICLIPLRYVSDNLLREHLPDFLPPVTQIVLSSPDLAVRQLAVDFMSRLA” the “soluble on expression in E. coli” value was “not soluble”.
In the case of “MGSDKIHHHHHHCDDFLDSFPQDTVTNENFWKSKEDADKVLVDIYASLLPKDAIFFDEAMSDNAYLVWDWWGGAQQVANGSYTTSGEIPTNRWNGSYEVIRKCWFLLEGIEKIEDISEQDKNKIIGETYFMLAYNYYVLTSYFGDVPLVTKTLAIPESKQLVRTPKAEVVDYAINKLKEAAVMLEGLSQEKGRVTADACRFLIARMYLYNGDYSNVLETVKLLEGKYQLYREGDTPYEDLFSGVAENSCEVILSVVCDKRVGEIYTSHGGNGIMLLKGITGEDPYRGVTPSGSLVDAYPMADGRLIHEAGSSYDPKKPYEGRDPRFYQSIVYPTGQIKYLDVETGTVKERLYDPEDPTTVPEHQYNYSQPSATGYMWNKYIDYSVYAMNSVWDCTNDIIVFRYADVLLMKAEALLQTKGESAKEEVCNLIDQLRDRCSCGRVHRENYNSKDELMELLKNERRIELANEGLRYMDLIRWKDAEKNTIVTGVGLTGQMYGAYMRKDGVGKDDKTVDVDNTPRRYIETRYFNASKGYLFPIPQKERDLNPNLTQNPNW”, the “soluble on expression in E. coli” value is reported as “not soluble”.
For “MAHHHHHHMKSATMSATHALRDKWFVSFLPLLTADMVNTDYKGNWQLAAQERTQKLDWITSVEELWSTMNSLPKVHQLGMGSTLIFARNNKEPPSYEAYPNGSRIMINLLKPPTTDAGLELVLAVVMGETAAEKASDGKPVCDVLRIAARPSREHSEQIRVEVWLSDSTRSHAVAEFLAEAMRAKGLAANSYNIAEASFDAAAPGKDKKVLAASTMPSPSSPPMVKD”, the “soluble on expression in E. coli” value was “soluble”.
With “MKIAITITVLMLSICCSSASSDICPGFLQVLEALLLGSESNYEAALKPFNPASDLQNAGTQLKRLVDTLPQETRINIVKLTEKILTSPLCEQDLRV” the “soluble on expression in E. coli” value was “soluble”.
For “MSESYTLIKELKRQLKSAGLHYVDVAQHLNLSEGSVKRLLAEGQHISLERLERICQLIGLEMAELFKLAAAHNKGLESLTLEQEKQLVDDKALLLVAICVVNGYQFEQIVQQYTFNELELVQKLAHLDRLNIIDLQPNNKIRLRISPTFKWQMGGPIQRFFQQQVQDAFFQSYFSGEDEQLSMATGLMSVPTNKKLQQKLQKVIDEFYQACQSDSSLDMDEKHGTSLIIAMRRWTFPLFEPWERKPTQKSQN”, the “soluble on expression in E. coli” value was “not soluble”.
In the case of “MGSDKIHHHHHHMYSLAVNNGTLSDEQISGLVHQALADRQLDGQRILILIPDGTRTAPIPQIFRLLHQELGKRVPALDFLIALGTHNPMSEEQINHLVGVTPKERETTFKKVRIFNHLWNEPDTFISCGVISADEIAEISRGMLHQSVEVRVNKLVTQYDLIMICGPVFPHEVVGFSGGNKYFFPGIGGQEVIDISHWLGALITSYEIIGTSGITPVRRLINRAANLISTPKLCLAMVVAPKTNQLAGLYIDKPESAWEAAAKLSDKLHITYVDRSFKQVLSVMPEMYDDIWTAAKGMYKLEPVVADGGEVIIYAPHITEFSYTHGEILSQIGYHVRDYFLKQWDKFQAYPGGVLAHSTHLKGMGTFDFTEGEKARIRVTLATGISAERCAAHNLNYRDPATIRPTEWANREDEGILLVPKSGEILYRLIQA”, the “soluble on expression in E. coli” value is reported as “not soluble”.
For “MVDPQLDGPQLAALAAVVELGSFDAAAERLHVTPSAVSQRIKSLEQQVGQVLVVREKPCRATTAGIPLLRLAAQTALLESEALAEMGGNASLKRTRITIAVNADSMATWFSAVFDGLGDVLLDVRIEDQDHSARLLREGVAMGAVTTERNPVPGCRVHPLGEMRYLPVASRPFVQRHLSDGFTAAAAAKAPSLAWNRDDGLQDMLVRKAFRRAITRPTHFVPTTEGFTAAARAGLGWGMFPEKLAASPLADGSFVRVCDIHLDVPLYWQCWKLDSPIIARITDTVRAAASGLYRGQQRRRRPG”, the “soluble on expression in E. coli” value was “soluble”.
For “MAPKDQAADMDYDQTKKMVVDILKTDDGKKAIKELLNDDAMNEALVIDQDAIKGTIEKTLTSKKGEEFWKNIFEDTDFAEGFAKTLQTEHEKVIKKLMKDPDYQKMLMSVMQDPGMDKKYSQLAKSQEFRSYLEEVINETLSSPLYKKQFEDELKKAAKDTAKESELEHHHHHH”, the “soluble on expression in E. coli” value was “soluble”.
With “MKDVSTDAPVDSARIINGKFAFADTTKIENPVIKILSIHASKMGLEYRLPVVIENGTIKASIADVVCTEGTMLNERMQDFLLAIDAYSAACTDKPVEQIKSGFSELLKRYIEMNNDNVIGTYIQTAYQSSL” the “soluble on expression in E. coli” value was “not soluble”.
In the case of “MGSDKIHHHHHHMYLKELSMMPGVSGDEGKVRDFIKSKIEGLVDNLYTDVLGNLIALKRGRDSSKKLLVSAHMDEVGFVVSKIEKDGKVSFLPVGGVDPRILPGKVVQVKNLKGVIGYRPIHLQRDEENTPPRFENLRIDFGFSSADEAKKYVSIGDYVSFVSDYIEKNGRAVGKAFDDRAGCSVLIDVLESGVSPAYDTYFVFTVQEETGLRGSAVVVEQLKPTCAIVVETTTAGDNPELEERKWATHLGDGPAITFYHRGYVIPKEIFQTIVDTAKNNDIPFQMKRRTAGGTDAGRYARTAYGVPAGVISTPARYIHSPNSIIDLNDYENTKKLIKVLVEEGKIVEVVS”, the “soluble on expression in E. coli” value is reported as “not soluble”.
With “MKTIIFALNDHSPKYKQIYEKLKSLIERGDIQANEPLPSIRQLAESLNVSRNTTLMAYEQLAAEGYIRAEKRKGYFANEVEPLFIPKARISARQPAREAAAPVVVDFARRCR” the “soluble on expression in E. coli” value was “not soluble”.
